According to patent publication US20250101096A1 (SERA PROGNOSTICS, published 2025):
Numbering of substitutions follows the chain as printed. Blank lines part the entries; values can stand above or below the binder they belong to.

Columns and labels:
[1] = target: T1, human insulin-like growth factor binding protein 4 (IBP4) (human, UniProt P22692 22-258); assay: AC-MS, mAb on M-PVA beads, QC2 serum, round 2 (beads reused)
T1 construct: also called IBP4 protein; IGFBP4
T1 sequence: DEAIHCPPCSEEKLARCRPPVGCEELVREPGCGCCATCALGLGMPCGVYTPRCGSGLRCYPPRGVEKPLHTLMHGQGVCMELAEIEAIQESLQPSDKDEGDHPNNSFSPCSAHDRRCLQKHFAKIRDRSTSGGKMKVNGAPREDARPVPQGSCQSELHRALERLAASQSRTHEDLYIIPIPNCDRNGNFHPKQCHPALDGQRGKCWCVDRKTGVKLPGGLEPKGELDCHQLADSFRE

[2] = target: T1, human insulin-like growth factor …; assay: AC-MS, mAb on M-PVA beads, QC2 serum, round 1
[3] = target: T1, human insulin-like growth factor …; assay: AC-MS, mAb on M-PVA beads, pooled pregnant serum
Text: (§1) Anti-IBP4 antibody evaluation and selection. A total of 8 hybridoma clones (1H9.B6, 5C11.A7, 7G11.H4, 3D4.E9, 1G3.A3, 8G4.G11, 5F10.B2, and 3D8.A11) were produced according to the “additional production of anti-IBP4 antibodies” methods disclosed in Example 1 and screened by AC-MS, shown in Table 10 below. Monoclonal antibodies from these clones purified by protein-G affinity chromatography were covalently coupled to M-PVA magnetic beads and used in AC-MS experiments using pooled pregnant serum. The 5B3.G9 anti-IBP4 antibody clone was included in this analysis for comparison to the performance of the additional IBP4 antibodies, as shown and italicized in Table 10 below. Table 10 includes a summary of the additional antibodies Response Ratios and shared epitope binding results as determined by the competitive binding assays of Example 3.

[4] = target: T1, human insulin-like growth factor …; assay: AC-MS, mAb on M-PVA beads, QC2 serum, round 3 (beads reused)
[5] = target: T1, human insulin-like growth factor …; assay: AC-MS, 10 ul QC2 serum, M-PVA beads coupled at 400 ug/ml mAb
Text: (§2) AC-MS performance at reduced IBP4 antibody coupling density. IBP4 antibodies were coupled to M-PVA beads at concentrations of […] in the coupling reaction to test the performance of M-PVA beads with reduced density of coupled antibody. Comparison of the IBP4 response ratios obtained in AC-MS experiments with M-PVA beads with a low density of coupled mAb should reveal differences in the apparent affinity of the antibodies to IBP4 protein.
(§3) M-PVA beads coupled to IBP4 mAbs 1H9.B6, 5C11.A7, 7G11.H4 or 5B3.G9 at each concentration were used in AC-MS experiments with 10 μl of QC2 serum.

[6] = target: T1, human insulin-like growth factor …; assay: AC-MS, 10 ul QC2 serum, M-PVA beads coupled at 100 ug/ml mAb
Text: as §2, §3

[7] = target: T1, human insulin-like growth factor …; assay: AC-MS, 10 ul QC2 serum, M-PVA beads at reduced mAb coupling density
Text: as §2, §3

[8] = target: T1, human insulin-like growth factor …; assay: SPR, format and IBP4 form not stated
[9] = target: T1, human insulin-like growth factor …; assay: AC-MS, 10 ul QC2 serum, M-PVA beads coupled at 25 ug/ml mAb
Text: as §2, §3

[10] = target: T1, human insulin-like growth factor …; assay: AC-MS, mAb on M-PVA beads, pooled pregnant serum, peptide …
Text: as §1

[11] = target: T2, anti-SHBG antibody clone variant 4G10.F8; assay: ECLIA, single peptide competes with SHBG for the antibody
T2 construct: Mouse monoclonal; variant form expressed from a standard backbone in CHO cells; also called SHBG (4G10.F8) Anti SHBG v1; SHBG #6

C4 Pos Control #4 = assay: as above
[12] = target: T3, anti-SHBG antibody clone variant 13C9.E5; assay: as above
T3 construct: Mouse monoclonal; variant form; also called SHBG (13C9.E5) Anti SHBG v2; SHBG #16
T3 sequence (VH, as listed by the source): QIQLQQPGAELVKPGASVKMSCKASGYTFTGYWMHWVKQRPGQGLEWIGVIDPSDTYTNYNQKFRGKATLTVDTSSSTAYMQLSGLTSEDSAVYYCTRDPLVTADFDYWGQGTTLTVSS

T2 sequence (heavy, as listed by the source, chain 1 of 2): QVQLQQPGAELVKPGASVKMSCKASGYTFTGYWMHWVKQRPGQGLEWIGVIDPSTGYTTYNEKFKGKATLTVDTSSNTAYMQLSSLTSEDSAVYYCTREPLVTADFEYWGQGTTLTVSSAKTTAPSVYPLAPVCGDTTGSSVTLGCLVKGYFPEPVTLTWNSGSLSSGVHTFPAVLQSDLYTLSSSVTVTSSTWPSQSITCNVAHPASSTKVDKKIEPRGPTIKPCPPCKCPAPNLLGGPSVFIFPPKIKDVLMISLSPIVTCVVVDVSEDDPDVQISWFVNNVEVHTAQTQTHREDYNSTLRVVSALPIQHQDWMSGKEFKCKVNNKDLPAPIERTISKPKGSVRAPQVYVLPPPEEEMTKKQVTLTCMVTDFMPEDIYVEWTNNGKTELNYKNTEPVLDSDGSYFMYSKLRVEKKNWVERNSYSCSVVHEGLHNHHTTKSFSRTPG
T2 sequence (light, as listed by the source, chain 2 of 2): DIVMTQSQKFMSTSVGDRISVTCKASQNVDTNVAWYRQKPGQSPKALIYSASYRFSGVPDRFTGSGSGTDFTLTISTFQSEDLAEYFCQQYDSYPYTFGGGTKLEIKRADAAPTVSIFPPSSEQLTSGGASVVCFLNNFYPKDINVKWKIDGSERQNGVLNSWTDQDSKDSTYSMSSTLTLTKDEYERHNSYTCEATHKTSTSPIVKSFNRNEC

ave RR [1]: 0.534 | ave RR [2]: 0.533 | ave IBP4 AC-MS RR [3]: 0.482 | ave RR [4]: 0.462 | ave RR [5]: 0.47 | ave RR [6]: 0.449 | percentage of the IBP4 RR at 25 relative to 400 coupling density [7]: 49% | Kd [8]: 10 nM | koff [8]: 0.0021 s⁻¹ | kon [8]: 200000 M⁻¹ s⁻¹ | t1/2 [8]: 5.5 min | ave RR [9]: 0.231 | Response Ratio [10]: 0.482
B1: anti-IBP4 antibody 5B3.G9 (antibody, mouse IgG1, kappa)
heavy: EVQLQQSGPELVKPGASAKISCKASGYTFTDYYMNWVKQSHGKSLEWIGDINPNNGGSAYNQKFKGKATLTVDKSSSTAYMELRSLTSEDSAVYYCARWDGGFDYWGQGTTLTVSSAKTTPPSVYPLAPGSAAQTNSMVTLGCLVKGYFPEPVTVTWNSGSLSSGVHTFPAVLQSDLYTLSSSVTVPSSTWPSQTVTCNVAHPASSTKVDKKIVPRDCGCKPCICTVPEVSSVFIFPPKPKDVLTITLTPKVTCVVVDISKDDPEVQFSWFVDDVEVHTAQTKPREEQINSTFRSVSELPIMHQDWLNGKEFKCRVNSAAFPAPIEKTISKTKGRPKAPQVYTIPPPKEQMAKDKVSLTCMITNFFPEDITVEWQWNGQPAENYKNTQPIMDTDGSYFVYSKLNVQKSNWEAGNTFTCSVLHEGLHNHHTEKSLSHSPGK
light: DIVMTQSQKFMSTSVRDRVSVTCKASQNVGTNVAWYQQKPGQSPKALIYSASYRYSGVPDRFTGSGSGTAFTLTISNVQSEDLAEYFCQQYNIYPLTFGAGTKLELKRADAAPTVSIFPPSSEQLTSGGASVVCFLNNFYPRDINVKWKIDGSERQNGVLNSWTDQDSKDSTYSMSSTLTLTKDEYERHNSYTCEATHKTSTSPIVKSFNRNECK

ave RR [1]: 0.607 | ave RR [2]: 0.602 | ave IBP4 AC-MS RR [3]: 0.588 | ave RR [4]: 0.62 | ave RR [5]: 0.586 | ave RR [6]: 0.562 | percentage of the IBP4 RR at 25 relative to 400 coupling density [7]: 82% | Kd [8]: 1.5 nM | koff [8]: 0.0009 s⁻¹ | kon [8]: 600000 M⁻¹ s⁻¹ | t1/2 [8]: 12.8 min | ave RR [9]: 0.479 | Response Ratio [10]: 0.588
B2: anti-IBP4 antibody 1H9.B6 (antibody, mouse IgG1, kappa, V domains shown)
VH: EVQLQQSGPELVKPGASVKISCKTSGYTFTDYYMNWVKQSHGKSLEWIGDINPNNGGAGYNQKFKGKATLTVDKSSSTAYMELRSLTSEDSAVYYCARWGWDRYFDYWGQGTTLTVSS
VL: DIVMTQSQKFMSTSVGDRVSVTCKASQNVGIDVAWYQQKPGQSPKALIYSASYRSSGVPDRFTGSGSGTDFTLTINNVQSEDLAEYFCQQYNSYPLAFGSGTKLEIKR
notes: Mouse hybridoma mAb raised against FL IBP4; also called IBP4-1H9.B6

ave RR [1]: 0.609 | ave RR [2]: 0.651 | ave IBP4 AC-MS RR [3]: 0.548 | ave RR [4]: 0.619 | ave RR [5]: 0.595 | ave RR [6]: 0.567 | percentage of the IBP4 RR at 25 relative to 400 coupling density [7]: 79% | Kd [8]: 1.6 nM | koff [8]: 0.00074 s⁻¹ | kon [8]: 450000 M⁻¹ s⁻¹ | t1/2 [8]: 15.6 min | ave RR [9]: 0.47 | Response Ratio [10]: 0.548
B3: anti-IBP4 antibody 5C11.A7 (antibody, mouse IgG1, kappa, V domains shown)
VH: QVQLQQSGAELVRPGASVTLSCKASGYTFTDYEMHWVRQTPVHGLEWIGAIDTETGGPAYNQKFKGKAILTADKSSSTAYMELRSLTSEDSAVYFCTRARGSRSVYYFDNWGQGTTLTVSS
VL: B2 VL with I31T, D32N, Q42H, A46V, S55H, N76G, E85D, N92D, S93T, A97T
notes: Mouse hybridoma mAb raised against FL IBP4; also called IBP4-5C11.A7

ave RR [1]: 0.56 | ave RR [2]: 0.598 | ave IBP4 AC-MS RR [3]: 0.525 | ave RR [4]: 0.547 | ave RR [5]: 0.538 | ave RR [6]: 0.492 | percentage of the IBP4 RR at 25 relative to 400 coupling density [7]: 75% | Kd [8]: 2.8 nM | koff [8]: 0.00102 s⁻¹ | kon [8]: 370000 M⁻¹ s⁻¹ | t1/2 [8]: 11.3 min | ave RR [9]: 0.404 | Response Ratio [10]: 0.525
B4: anti-IBP4 antibody 7G11.H4 (antibody, mouse IgG1, kappa, V domains shown)
VH: B3 VH
VL: DIVMTQSQKFMSTSVGDRVSVTCKASQNVDTNIAWYQQKPGHSPKALIYSASYRYSGVPDRFTGSGSGTDFTLTIGNVQSEDLADYFCQQYDTYPLTFGSGTKLEIKR
notes: Mouse hybridoma mAb raised against FL IBP4; also called IBP4-7G11.H4

% Unblocked Signal at 0.07 uMolar [11]: 95.8% | % Unblocked Signal at 0.27 uMolar [11]: 83% | % Unblocked Signal at 1.08 uMolar [11]: 53.2% | % Unblocked Signal at 0.07 uMolar (C4 Pos Control #4): 93.3% | % Unblocked Signal at 0.27 uMolar (C4 Pos Control #4): 77.1% | % Unblocked Signal at 1.08 uMolar (C4 Pos Control #4): 66.3% | % Unblocked Signal at 0.07 uMolar [12]: 93.4% | % Unblocked Signal at 0.27 uMolar [12]: 89.6% | % Unblocked Signal at 1.08 uMolar [12]: 86.8%
B5: 1 (peptide)
peptide: LRPVLPTQSAHDPP
notes: SHBG peptide of pool 1+2+3; also called peptide 1; Individual Peptide 1
